In PMC3245936 (Nucleic Acids Research, 2011) one finds binding result and Kd data, which are given here for 13 molecules.

Usually Kd stands for a measure of binding affinity in units of concentration. A low value points to a tighter complex.

Series [1] deals with T1, full-length SpPot1 (Schizosaccharomyces pombe Pot1) (S. pombe, UniProt O13988 1-555).
T1 sequence (looked up): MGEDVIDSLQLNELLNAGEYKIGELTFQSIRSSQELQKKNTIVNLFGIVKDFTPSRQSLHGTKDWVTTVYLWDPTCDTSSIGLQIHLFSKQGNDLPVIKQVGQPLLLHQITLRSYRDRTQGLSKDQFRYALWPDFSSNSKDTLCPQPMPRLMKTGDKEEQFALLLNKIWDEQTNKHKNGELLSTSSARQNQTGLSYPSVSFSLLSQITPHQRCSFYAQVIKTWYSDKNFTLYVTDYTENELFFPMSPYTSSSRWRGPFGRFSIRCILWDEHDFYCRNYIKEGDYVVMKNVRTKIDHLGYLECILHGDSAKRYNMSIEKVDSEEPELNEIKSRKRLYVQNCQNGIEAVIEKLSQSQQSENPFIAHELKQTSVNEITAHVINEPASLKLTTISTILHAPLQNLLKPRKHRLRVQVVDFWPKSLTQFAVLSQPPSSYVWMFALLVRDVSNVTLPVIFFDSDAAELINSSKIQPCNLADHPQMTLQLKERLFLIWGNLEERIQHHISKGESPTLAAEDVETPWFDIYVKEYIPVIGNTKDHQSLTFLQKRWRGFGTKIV
In words: native gel or EMSA. (In general: In EMSA bound probe runs differently from free probe, usually more slowly.)

The target of series [2] is T2, SpPot1 (Schizosaccharomyces pombe, UniProt O13988 1-555).
T2 sequence: T1 sequence (looked up)
In words: filter binding.

Series [3] deals with T2, SpPot1. The experiment in a line: size-exclusion chromatography. In general terms: Size exclusion chromatography separates by hydrodynamic size, large species first.
The target of a further series is T3, SpPot1;Tpz1-1-234 (Schizosaccharomyces …, UniProt O13988;O14246 1-555;1-234, |).
T3 sequence 1: T1 sequence (looked up)
T3 sequence 2: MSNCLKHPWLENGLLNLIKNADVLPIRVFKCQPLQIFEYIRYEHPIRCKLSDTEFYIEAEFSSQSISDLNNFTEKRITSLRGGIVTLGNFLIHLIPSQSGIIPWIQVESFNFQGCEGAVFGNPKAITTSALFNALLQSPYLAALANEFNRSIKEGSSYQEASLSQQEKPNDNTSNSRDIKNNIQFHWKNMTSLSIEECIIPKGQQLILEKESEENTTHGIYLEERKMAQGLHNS
The experiment in a line: filter binding.

B1: Tpz1-1–234 (domain or fragment, S. pombe, UniProt O14246 1-234, looked up)
chain: T3 sequence 2
On to B1, for which the binding result in series [1] was “binds”.

B2: d12rA (mixed)
DNA: GGTTACAGGTTAC
modifications: ribonucleotide (rA) at 7
On to B2, for which the Kd with SpPot1 [2] was determined as 3.4 ± 0.3 nM.

B3: GGTTAC (ssDNA)
DNA: GGTTAC
B3: the binding result in the series with SpPot1 [3] was “binds”.

B4: r6r12 (mixed)
DNA: GGTTACGGTTAC
modifications: ribonucleotides at 6 and 12
On to B4, for which the dissociation constant (Kd) with SpPot1 [2] stood at 3.2 ± 0.6 nM; with SpPot1;Tpz1-1-234, 0.3 ± 0.05 nM.

B5: d12rArGrG (mixed)
DNA: GGTTACAGGGGTTAC
modifications: ribonucleotides (rArGrG) at 7-9
The molecule B5 had an equilibrium dissociation constant (Kd) with SpPot1 [2] of 4 ± 0.5 nM.

B6: d12dA (ssDNA)
DNA: GGTTACAGGTTAC
B6 showed a Kd with SpPot1 [2] of 4.3 ± 0.6 nM.

B7: r12 (ssRNA)
RNA: GGUUACGGUUAC
As for B7, the figures for the Kd with SpPot1 [2] and with SpPot1;Tpz1-1-234 were about 324 nM and about 1000 nM, respectively.

B8: d12 (ssDNA)
DNA: GGTTACGGTTAC
Take B8: the Kd with SpPot1 [2] stood at 5 ± 1.3 nM; with SpPot1;Tpz1-1-234, 0.22 ± 0.03 nM.

B9: r2r8 (mixed)
DNA: GGTTACGGTTAC
modifications: ribonucleotides at 2 and 8
For B9, the equilibrium dissociation constant (Kd) with SpPot1 [2] stood at 3.2 ± 0.5 nM; with SpPot1;Tpz1-1-234 it was 0.19 ± 0.03 nM.

B10: r3r4r9r10 (mixed)
RNA: GGUUACGGUUAC
modifications: ribonucleotides (rU) at 3, 4, 9 and 10
B10: the dissociation constant Kd in the series with SpPot1 [2] was about 238 nM.

B11: r1r7 (mixed)
DNA: GGTTACGGTTAC
modifications: ribonucleotides at 1 and 7
Turning to B11, the figures for the Kd with SpPot1 [2] and in the series with SpPot1;Tpz1-1-234 were 5.1 ± 0.01 nM and 0.31 ± 0.02 nM, respectively.

B12: d12dAdGdG (ssDNA)
DNA: GGTTACAGGGGTTAC
For B12, the Kd with SpPot1 [2] was determined as 4.9 ± 0.7 nM.

B13: r5r11 (mixed)
DNA: GGTTACGGTTAC
modifications: ribonucleotides at 5 and 11
For the molecule B13, the Kd in the series with SpPot1 [2] came out at 3.34 ± 0.4 nM; with SpPot1;Tpz1-1-234 it was 0.31 ± 0.05 nM.
